± gives the standard deviation of the averaged measurements.
Test: total protein half-life in vivo (active degradation + dilution); higher = more stable protein
[1] = E. coli NCM3722 delta-clpP delta-lon delta-hslV, growth: N-lim chemostat, doubling time 6 h
[2] = E. coli NCM3722 delta-clpP, growth: N-lim chemostat, doubling time 6 h
[3] = E. coli NCM3722 delta-hslV, growth: N-lim chemostat, doubling time 6 h
[4] = E. coli NCM3722 delta-lon, growth: N-lim chemostat, doubling time 6 h
[5] = E. coli NCM3722 delta-smpB, growth: N-lim chemostat, doubling time 6 h
[6] = wild type E. coli NCM3722, growth: C-lim chemostat, doubling time 6 h
[7] = wild type E. coli NCM3722, growth: C-lim chemostat, doubling time 12 h
[8] = wild type E. coli NCM3722, growth: N-lim chemostat, doubling time 6 h
[9] = wild type E. coli NCM3722, growth: N-lim chemostat, doubling time 12 h
[10] = wild type E. coli NCM3722, growth: P-lim chemostat, doubling time 12 h
[11] = wild type E. coli NCM3722, growth: C-lim chemostat, doubling time 3 h
[12] = wild type E. coli NCM3722, growth: P-lim chemostat, doubling time 6 h

Sequence	total protein half-life in vivo [1] [h]	total protein half-life in vivo [2] [h]	total protein half-life in vivo [3] [h]	total protein half-life in vivo [4] [h]	total protein half-life in vivo [5] [h]	total protein half-life in vivo [6] [h]	total protein half-life in vivo [7] [h]	total protein half-life in vivo [8] [h]	total protein half-life in vivo [9] [h]	total protein half-life in vivo [10] [h]	total protein half-life in vivo [11] [h]	total protein half-life in vivo [12] [h]
MPGRFELKPTLEKVWHAPDNFRFMDPLPPMHRRGIIIAAIVLVVGFLLPSDDTPNAPVVTREAQLDIQSQSQPPTEEQLRAQLVTPQNDPDQVAPVAPEPIQEGQPEEQPQTTQTQPFQPDSGIDNQWRSYRVEPGKTMAQLFRDHGLPATDVYAMAQVEGAGKPLSNLQNGQMVKIRQNASGVVTGLTIDTGNNQQVLFTRQPDGSFIRAR	5.6 ± 0.12	6.35 ± 0.2	5.57 ± 0.45	6.65 ± 0.27	6.12 ± 0.68	5 ± 0.64	9.18 ± 0.36	5.79 ± 1.1	11.4 ± 0.3	8.86 ± 0.21		
MPHHIVIVEDEPVTQARLQSYFTQEGYTVSVTASGAGLREIMQNQSVDLILLDINLPDENGLMLTRALRERSTVGIILVTGRSDRIDRIVGLEMGADDYVTKPLELRELVVRVKNLLWRIDLARQAQPHTQDNCYRFAGYCLNVSRHTLERDGEPIKLTRAEYEMLVAFVTNPGEILSRERLLRMLSARRVENPDLRTVDVLIRRLRHKLSADLLVTQHGEGYFLAADVC	5.18 ± 0.63	4.57 ± 0.43		4.9	3.92 ± 0.089	5.13 ± 0.33	9.618 ± 0.075	3.89 ± 0.33	5.93	9.93 ± 0.41	2.78 ± 0.039	4.28
MPHIDIKCFPRELDEQQKAALAADITDVIIRHLNSKDSSISIALQQIQPESWQAIWDAEIAPQMEALIKKPGYSMNA												2.92
MPHSDELDAGNVLAVENLNIAFMQDQQKIAAVRNLSFSLQRGETLAIVGESGSGKSVTALALMRLLEQAGGLVQCDKMLLQRRSREVIELSEQNAAQMRHVRGADMAMIFQEPMTSLNPVFTVGEQIAESIRLHQNASREEAMVEAKRMLDQVRIPEAQTILSRYPHQLSGGMRQRVMIAMALSCRPAVLIADEPTTALDVTIQAQILQLIKVLQKEMSMGVIFITHDMGVVAEIADRVLVMYQGEAVETGTVEQIFHAPQHPYTRALLAAVPQLGAMKGLDYPRRFPLISLEHPAKQAPPIEQKTVVDGEPVLRVRNLVTRFPLRSGLLNRVTREVHAVEKVSFDLWPGETLSLVGESGSGKSTTGRALLRLVESQGGEIIFNGQRIDTLSPGKLQALRRDIQFIFQDPYASLDPRQTIGDSIIEPLRVHGLLPGKDAAARVAWLLERVGLLPEHAWRYPHEFSGGQRQRICIARALALNPKVIIADEAVSALDVSIRGQIINLLLDLQRDFGIAYLFISHDMAVVERISHRVAVMYLGQIVEIGPRRAVFENPQHPYTRKLLAAVPVAEPSRQRPQRVLLSDDLPSNIHLRGEEVAAVSLQCVGPGHYVAQPQSEYAFMRR	5.29 ± 0.17	3.52 ± 0.092	4 ± 0.11	4.37 ± 0.63	3.88 ± 0.28	3.9527 ± 0.00027	6.1 ± 0.44	3.6 ± 0.015	7.19 ± 1.5	6.87 ± 0.34	2.37 ± 0.21	4.059 ± 0.034
MPHSLFSTDTDLTAENLLRLPAEFGCPVWVYDAQIIRRQIAALKQFDVVRFAQKACSNIHILRLMREQGVKVDSVSLGEIERALAAGYNPQTHPDDIVFTADVIDQATLERVSELQIPVNAGSVDMLDQLGQVSPGHRVWLRVNPGFGHGHSQKTNTGGENSKHGIWYTDLPAALDVIQRHHLQLVGIHMHIGSGVDYAHLEQVCGAMVRQVIEFGQDLQAISAGGGLSVPYQQGEEAVDTEHYYGLWNAAREQIARHLGHPVKLEIEPGRFLVAQSGVLITQVRSVKQMGSRHFVLVDAGFNDLMRPAMYGSYHHISALAADGRSLEHAPTVETVVAGPLCESGDVFTQQEGGNVETRALPEVKAGDYLVLHDTGAYGASMSSNYNSRPLLPEVLFDNGQARLIRRRQTIEELLALELL	3.43 ± 0.39	2.81 ± 0.36	2.41 ± 0.37		2.06 ± 0.69	4.76 ± 0.92	8.09 ± 0.86	2.53 ± 0.12	3.6 ± 0.33	9.66 ± 0.16	2.91 ± 0.14	5.29 ± 0.3
MPHSYDYDAIVIGSGPGGEGAAMGLVKQGARVAVIERYQNVGGGCTHWGTIPSKALRHAVSRIIEFNQNPLYSDHSRLLRSSFADILNHADNVINQQTRMRQGFYERNHCEILQGNARFVDEHTLALDCPDGSVETLTAEKFVIACGSRPYHPTDVDFTHPRIYDSDSILSMHHEPRHVLIYGAGVIGCEYASIFRGMDVKVDLINTRDRLLAFLDQEMSDSLSYHFWNSGVVIRHNEEYEKIEGCDDGVIMHLKSGKKLKADCLLYANGRTGNTDSLALQNIGLETDSRGQLKVNSMYQTAQPHVYAVGDVIGYPSLASAAYDQGRIAAQALVKGEATAHLIEDIPTGIYTIPEISSVGKTEQQLTAMKVPYEVGRAQFKHLARAQIVGMNVGTLKILFHRETKEILGIHCFGERAAEIIHIGQAIMEQKGGGNTIEYFVNTTFNYPTMAEAYRVAALNGLNRLF	4.47 ± 0.55	3.95 ± 0.2	4.17 ± 0.28	3.85 ± 0.34	4.01 ± 0.21	6.09 ± 0.52	10.5 ± 0.61	4.46 ± 0.093	6.87 ± 0.64	12.2 ± 0.42	2.74 ± 0.36	6.15 ± 0.82
